Data from patent publication US20240409621A1 (XIAMEN UNIVERSITY, published 2024).

B1: monoclonal antibody 7G5 (antibody, V domains shown)
VH: QVQLKESGPGLVAPSQSLSITCTVSGFSLSSYGVHWIRQPPGKGLEWLGVIWAGGSTNYNSALMSRLSISEDNSKSQVFLKMNSLQTDDTAVYYCARKGLVWPAMDYWGQGTSVTVSQ
VL: DIQMTQTTSSLSASLGDRVTISCRASQDISHYLNWYQQKPDGTVKLLIYYTSRLHSGVPSRFSGSGSGTDYSLTIYNLEQEDIATYFCQQGNTLPWTFGGGTKLEIK
B2: monoclonal antibody 5B11 (antibody, V domains shown)
VH: QIQLVQSGPELKKPGETVKISCKASGYTFTDYSMHWLKQAPGKGLKWMGWITTETGEPTYADDFKGRFAFSLETSASTAYLQINNLKNEDTGIYFCARYYYGPFYWGQGTLVTVST
VL: DIQMTQSPASLSASVGETVTITCRSSGNIHNFLTWYQQKQGKSPQFLVYNAKTLADGVSSRFSGSGSGTQFSLKINSLQPEDFGIYYCQHFWTTPYTFGGGTKLEIK
B3: monoclonal antibody 6B2 (antibody, V domains shown)
VH: EVQLQQSRPELVKPGASVKISCKASGYSFTAYFMNWVKQSHGKSLEWIGRINPYIGDTFYNQKFKGKATLTVDKSSNTAHMELLSLTSEDSAVYYCGRSEYGNYYFDYWGQGTTLTVSQ
VL: ENVLTQSPAIMSASLGEKVTMSCRASSSVNYMYWYQQKSDASPKLWIYYTSNLAPGVPARFSGSGSGNSYSLTISSMEGEDAATYYCQQFTSSPLTFGAGTKLELK

Experiments:
Test in all cases: cell-based or functional assay
[1] = biological target: T1, F protein of RSV A2 (on the virus in the neutralization assay) (respiratory syncytial virus, A2 strain, UniProt P03420 26-574)
[2] = biological target: T1, F protein of RSV A2 (on the virus in …); remark: listed apart in the source
[3] = biological target: F protein of RSV type B strain 18537 (on the virus in the neutralization assay) (respiratory syncytial virus type B, …, UniProt P13843 26-574)

Binder	IC50 of each RSV neutralizing antibody, RSV A2 [1] [µg/mL]	neutralizing ability against RSV A2, relative to 1129 [2] [times]	neutralizing ability against 18537, relative to 1129 [3] [times]
B1	0.0316		
B2	0.0074	50	~10
B3	0.0949		
